Assay results: the DeepSol protein solubility set

assay: soluble on expression in E. coli; label from the status in PepcDB or PDB records

Sequence | soluble on expression in E. coli
MGSDKIHHHHHHDEIDTLVSKSDNAITFGTYVGKQTKALDKSAFAKDDKFGVSAYYGDGTFEANFMSNETISTTDGSTWTYTNTKYWPEGNPVSFVAYYPNLTTAPTITDGATAIPFTVKNDATEQVDFMWSTVKAATKDDKNGTAINGITNTTTDATSVPFVFQHGLSKISFKAKLGEASYSGVTIKVKSIKINGVKNKGTFTIPADLTAGTWATEDAATNDYTVSETNGKEIASTTADSIGESLLMIPQDMKGKTIEIAYDLVYTNPAQTISNTKAIVLDDKSNWVMNQQYTYTLTISLETVQLTASVGQFGANIDL | not soluble
MGSDKIHHHHHHDFLDRHPQGQFTEDDNPGALAEGKVFNIYTMMRNYNITAGIPAFAIEYFRSEDSEKGSTASDGADQAAMYDDFQYNASNGLIKAYWSQNYAVIYQCNDVIETIEKGNLTEENDLRNKGEALFFRAYCYFNLVRAFGEVPLVTFKVNDASEANVPKTTAEEIYKQIDSDLTQAEGLLPRQWQSAYLGRLTWGSARALHARTYMMRNDWQNMYTAATDVMNSGQYNLNTPYDVIFTDEGENSSESVFELQCASTAALPASDKIGSQFCEVQGVRGSGQWDLGWGWHMGTELMGEAFEPGDPRKDATLLYFRRSDTDPITPENTNKPYGESPVSQADGTYFNKKAYTNPALREEFTRHGFWVNIRIIRYGDVVLMAAESANELGKTGEASNYLEMVRARARGNNPDILPKVTSLDQTVLRDAIRHERRVELGLESGRFYDLVRWGIASQVLHAAGKTGYQPKNALLPLPQDEIDKSKGVLVQNPDY | not soluble
MGSDKIHHHHHHEKKDKKENDTSAVQATETDCTAAELVTTEPEGEITISEMIDQRIKEEGKIMIYRMCIAESNTPVEITEDLKVKIISYDGDKLKGYKNPDDFLMETRLGDIIHNKVDYSTYNIGTYGGNWKRHRYVSGGDEKYVEEEGYVQREITTDDSGNNAQLETLYSYSKGTLYSRDAGSKEWNQTEKEDSLDIVSFGTFERIKLDGKTYMTFCVRDNLNLIEYDIIPDNKFTENKTVVYDTPGTEKTTVNTVDYLKEYQAVPKEELEQMIVFPGSKKAESSQAAD | not soluble
MGSDKIHHHHHHENLYFQGMARTAEEQANHDLVIEMYNKVLIAMDSSAVDRYIAPGYVQHSSLAEPSVEALKGFLDRVRAESPDARQTIHRSFVDGDHVITHTHVERWPGDAGLAVVDIFRVEGGMIVEHWDVIQDVPANPVNPNSMF | soluble
MGSDKIHHHHHHEVPIGFDTDELSFDMSLVLLTGDMQTKASDPNYTYATTEELTIQNCHVAVFDKDGKRIYFKNFYSKDLGEMKTIGNLSGYELQLEGVRTFGKEDKKVSVLVVANANNANNSPFDNLTTYDGVDNSYTAKTIAKGPVTASLLVKIGKSETTLKYNQDNAPVTVSLIQLSAKIEYTGVYKKENGELLEGFSLTKVAGLNASSKITIFNTSAVENGAFSDLAYPTTKPVTFYTYEISDAFKEVILSVQSGVEPKEYPFPANKFIKGNYYRIKGLKSSTEIEWVLENVEDKEVTLDPFE | not soluble
MGSDKIHHHHHHFGKQSKPTPNFAKKSDAYSADDDRVPNLVDDDEEEIIGDEEDDVNQPGPSGSQSNPEPQDEEENAEQQSANSSQSSAAEEEDDEHVVPENEPVKPTEEFAKKSPKNTGGAKRRTARRGD | not soluble
MGSDKIHHHHHHGDWLNLNPSTSVTTPQAIRTLEEAQIALNGIYRIAASHSYYGDNYLYYADCRGEDVQARVSKGAGKRVSPYYEFNVTADDALNITRVWNQPYSVIHQANSLLERIESGAVVTDDAVALNCIKAEALALRGLALFDLTRLFAMPYTLNNGTSLGVPIEIKTTLPTHQPARNTVAECYQQVIDDMTGALKLSALSADKKNGYLNVWSVKALLSRVYLYMNDNEKALALAKEVMNNGGLYQLFTHDEYPTVWGKDFSSESLFEFYYTLSEPDGGTGGEGAPMVYADNVKDWNNLVLTKAFLDLLGEDPDDVRHSLNRLPEKPEEDILPEGSKGYPKYLNKYPGKTGDNPQDNDICIIRLSEVYLNAAEAAFKLGGAENLKFSLDCLNAIVSRANPVKSVKETELSLERILKERRKELVGEGHAFFDAMRNGLSVSRTGGWHLPSVAAAAVISPSDPRVALPIPQAEIDANPNMVQNPH | not soluble
MGSDKIHHHHHHGKKKPPPPKSASKMGPPPPAPAPPTAPEAAPAAPTPDAAAAAPAEGEKKDGEKKSEKKDGDKKEEEKKDEEKKDGDKKEDDKKDEKKDEDKKDEKKDADEKKDEEKKDDKKDEKKDEKKDEKKDEKKEKSKKSKKSSKSKKSKKSKREKKDEEKKEDDKKEDDKKDDKKEDEKKDDDKKDDEKNYFW | not soluble
MGSDKIHHHHHHGSSESAEYQQTNHYNTPKGFMNDIQTIFKGSDGYYHMYYLLNSNYKLANDGTEWYHVRTKDWEHFENLGVAIPKFVNGWSAVATGSIFQNSNQFFKDLPTSAIVAYFTSYTDTGQHQYVAYSLDNGSSYQPYNNGKPVMISQTKEQNARDPYIWYDSNSKRLMMYLAEGDKIGIYASSDGKNWAYQGATVLNQYTLGGKDLGLVECPNLKTFYDSATNTTKHVLFFGANGYQYGSTTGTYYMIGHLDTQGNFVPEQNAERLDQGSDYYGANFYQESDCVVKSIAWMGNWDYLQGQILDDQGQESKHLGSVSSARDITMVKRDDKYVLESYLKNNNSRTNTVSYQSNADTAKLADDGYHKTLLSVSRWHSQELSLKFQANAATLNGHIRLIFKQADAQVSLDYNTDNGYYEVKRTSSKIIGSQKVNYERSYVVDSHWNGQKELNIYLVADKSSLEFALPNGQTYSMVKLSTASDMDIVIETSGSNRLQADLANLET | not soluble
MGSDKIHHHHHHIEPCADYTTRELDLRNEIKGAEELEEIKYEISKSFPMDELRFPKYWSDLSNQDVLVSEFIEGKSLEEGIEEKSLSWDTLLRLFRIHGAYLFGIGTFHGDLHPGNCIIDNDGKFVFIDNGAICHAPSKVNLSLFQFFENLSSNDFDAAFDSLLGLSDSPLKSTNLDNYYKEMNKIYDGFQNQTVGEKSLTRIMMQTVQAAVEKAGADFGEEAFPIIRALMYLDGLVLRTHPDVKLIESMGPYLEEFRLGLDLENKIKNV | not soluble
MGSDKIHHHHHHKETGNMPEIKKQPIASAVPDFNADSAYAYVANQVAFGPRVPNTAAHKACGDYLASELKRFGAKVYQQEAILTAYDGTKLEARNIIGSFDPENSKRVLLFAHWDSRPYSDHDPDPSKHRTPLDGADDGGSGVGALLEIARQIGQKAPGIGIDIIFFDAEDYGTPEFVTDYTPDSWCLGTQFWAKNPHVPNYTAEYGILLDMVGGKNATFFKEQQSLRAAAPIVEMVWSAARDLGYGKYFINAAGGAITDDHQYVISGRNIPSIDIINYDPESKTGFASYWHTQKDNMENIDRETLKAAGQTVLEVIYNR | not soluble
MGSDKIHHHHHHKIKQTAGRDQLGTFAPKFAELNDDILFGEVWSRTEQLGLRDRSLVTITSLISQGITDSSLTFHLQSAKNNGITRTEIAEIITHIGFYAGWPKAWAAFRLAKEVWNEDISCKDKDEKTTFQREMIFPIGEPNTAYAQYFTGNSYLAPISREQASISNVTFEPRCRNNWHIHHATQGGGQMLIGIAGRGWYQEEGKAAVEILPGTVIHIPANVKHWHGAAANSWFAHLAFELSGENTSNEWLEPVTDEEYDKIQMLP | not soluble
MGSDKIHHHHHHKVEGNGNIITKEISVDNYSEIELGGNIEYSGNNFWGNRSNKKFPVFKYTHGRSASLKITIDENLFPLLSIKSNNGRLAIRIQDGTRIKPTQYVIEGSSKTLKYLKTSGPMDFEAQNAFSEDQLEIKISGSSDVKFPHNVKLRLGEFSVSGSGDLVFEDLDCKNLTSKVSGSGDITLKGKADEARYSVSGSGDIKAYDLSVNDLSCSVSGSGDARVYAKDNMNLSVSGSGDIRYKGPANVNKSKSGSGSIQGAN | not soluble
MGSDKIHHHHHHLCRRLDGLNPNQQALCAENPFSIPFVARGVREAIRECENKFKFERWNCSSRDEVTETRHGKFQDILGKTLRSANKEAAFLNAIMAASIVHSITKGCNTGNLTECGCDSKPGMQRYQAESDPSMSRDQFSWGGCSDNVPHGIRYAKKFLDDWETAQFDKTKNVAHLVRRHNNFVGREAIAQNIRRQCRCHGVSGSCEFKTCWLQMQKFSQVSDLLKKRYDHFAVQVTRKATKRLRRKERTERKIPLRGNEMAYVHRSPSYCEKNLTAGILGTSGRECIHNSYSSESCDLLCCGRGYNTRLEIRQTQCECKFVWCCEVKCKTCTEEVAVHTCK | not soluble
MGSDKIHHHHHHLGNNAPRIIDFADSKGKGIIKYRYASMGAGQASSFQKKFTGKEPVEKIQHYLHVVFKEQLGKLYTAKTHEKMNLLSYYEFDNISAGKLKASIGNVYQGNIEANEFILHANSFPNPLNFYKNDLDTYLKNNNMYAFQSYVHGDLNGANIIIDAQDNVWIIDFFHTHRGHVLKDLVKLENDLLYIFSEMHSESDFQEALKISEVLFAVSDLQASLPDITQTGITKPSFVRVYKTLSYLRSLYSDLVEWDRNPLQVFIAQLRYSMHSLIFDECNQWQKEWALYNSGKFSQIISNKFLETDKLRIDFIKSDKIDAHSLALTILPGRKDYSRDLSEDLKEIKEQQIDCVVSLITKDEMDMYGVPELLDVYKKQGVECLHVPVIDQKIPVKAEIERINAFINAQQKKHKKVLIHCVGGLGRSGLVAACYLKSLGYPSDDAIKIVREARSSRAIESTEQEKFVYDYNERTV | not soluble
MGSDKIHHHHHHLKQKILHIIDSFSTGGAEVLLAGVIPELVDFEHVIVYLTPTKTPILSSDPTIKIVCLNFRSITDATRIIKDLNTIIEQEKPGIIHTHLYFSSLFIRFARTNKINIIQTYHNEYYRIRYPQFSARIKKIGLKLLDRFTMKNAYTVIHVSKAQQLVNDHDVRIKSSAVLYNYVEDQFYQTRKTSSFKGTGKLKIICVGNLKTEKNHILLLHALRQLMHLPIHVTICGEGNDYIMLQKYINRYDLPVTLMGSQKNIHELLGQHDLFVSCSIIEGFGISIAEAMASEIPLIISDISTFKEVTQNKAVFFESRNVASLAEKIEQFYLSPQSAAASVLACKEIAEQYKKSFYLDRLNTLYKK | not soluble
MGSDKIHHHHHHLPKLREDFKMQNKSVFILGASGETGKVLLKEILGQNLFSKVTLIGRRKLTFEEEAYKNVNQEVVDFEKLDVYASAFQGHDVGFCCLGTTRSKAGAEGFVRVDRDYVLKSAELAKAGGCKHFNLLSSRGADKSSSFLYLQVKGEVEAKVEELKFDRLSVFRPGVLLCDRQESRPGEWLARKFFGSLPDSWASGYAVPVVTVVRAMLNNLVSPSSGQMELLENKAILHLGKDRDVPKL | soluble
MGSDKIHHHHHHLPTIEQNRAPPFLAGLFCAIDLERRFLSNGKQKDFIMLDANTAQNPALLTVGYEGTDLRRFLACLEQSGVKTLVDVRERAQSRKKGFSKTALAEALAGIGIRYVHLRDLGDPKPGRDAARAGDYETFRKVFTSHMDTDAAKSALSELDTLAKEDRTCILCFERCHTECHRAIVATYLKELSPYDVVHVEV | not soluble
MGSDKIHHHHHHLRALGYQGRDVEVVALNDAQYLVAACDSCGAIGEKELDAVKVPWRVTGRMTARVALLEVLAVGAVPQMLSIAIANEPLPAGEEIMKGVREELKAMNLLSLPAAVSTEKNMPTEQTGLGITVIGLCDQDKLRIGRARPGNSLFCLGLPKVGTEAADPEDPDILQGIHLIQLLNIPGVYDIIPVGSQGIRGEAEALAQAVGARFGEDSQCRLDINKSAGPSTCLIFTAAEDIELGDFGKLPIHKIGRLEEDGGGGLLTENED | not soluble
MGSDKIHHHHHHLRTNTPTFINIRNSYKIKTIMHFHLSGNAASDLKIVRFEDFSGSADAFRQHWYVHRVTMQRRKHVIVMEESTRYALLFCRVTQPFFKNFPEFFADTLWRHIVSLCAVPTARFGSIQAMTTDMCSENIYHKGLNRSVQAHIRDSFLTLECYLLHEPPINLARQEDVFQMNIRINETPRTRYGEKNYIWSLREFQRLWCEHLGVAAVRG | not soluble
